Assays:
[1] = biological target: rhIL-18 (IL-18, #9124-IL-010, R&D Systems) (human) (UniProt Q14116); assay: cell-based or functional assay
[2] = biological target: CD19 surface antigen on Raji lymphoma target-cells (#CCL-86, ATCC) (UniProt P15391); assay: cell-based or functional assay
Chain of UniProt P15391 (P15391 20-556 limits assumed): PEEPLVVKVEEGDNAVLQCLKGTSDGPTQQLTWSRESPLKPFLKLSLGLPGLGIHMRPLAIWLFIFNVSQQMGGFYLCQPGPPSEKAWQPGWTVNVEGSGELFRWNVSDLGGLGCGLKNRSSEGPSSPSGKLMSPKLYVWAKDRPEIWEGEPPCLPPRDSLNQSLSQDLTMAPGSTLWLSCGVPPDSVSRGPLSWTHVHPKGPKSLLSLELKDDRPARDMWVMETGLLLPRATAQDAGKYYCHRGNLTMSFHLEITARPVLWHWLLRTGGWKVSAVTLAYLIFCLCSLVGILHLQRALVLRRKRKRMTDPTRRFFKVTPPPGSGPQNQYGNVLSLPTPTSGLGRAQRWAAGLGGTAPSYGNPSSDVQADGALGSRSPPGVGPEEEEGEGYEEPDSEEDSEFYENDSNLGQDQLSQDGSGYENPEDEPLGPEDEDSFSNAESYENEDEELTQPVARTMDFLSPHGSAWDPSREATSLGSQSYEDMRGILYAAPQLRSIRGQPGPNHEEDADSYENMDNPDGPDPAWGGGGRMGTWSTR

Chain of UniProt Q14116 (Q14116 37-193 limits assumed): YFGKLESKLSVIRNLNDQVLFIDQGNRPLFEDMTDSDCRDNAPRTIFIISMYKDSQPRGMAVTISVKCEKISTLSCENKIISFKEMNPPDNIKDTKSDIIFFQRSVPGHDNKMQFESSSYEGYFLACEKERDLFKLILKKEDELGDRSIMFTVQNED

Substance	IL-18BP-mediated inhibition (%) of IFN-γ in Tumor + CAR-T + IL-18 + IL-12 culture, day 1 [1]	IL-18BP-mediated inhibition (%) of IFN-γ in Tumor + CAR-T + IL-18 + IL-12 culture, day 2 [1]	IL-18BP-mediated inhibition (%) of IFN-γ in Tumor + CAR-T + IL-18 + IL-12 culture, day 3 [1]	IL-18BP-mediated inhibition (%) of IFN-γ in Tumor + CAR-T + IL-18 culture, day 1 [1]	IL-18BP-mediated inhibition (%) of IFN-γ in Tumor + CAR-T + IL-18 culture, day 2 [1]	IL-18BP-mediated inhibition (%) of IFN-γ in Tumor + CAR-T + IL-18 culture, day 3 [1]	reduction of IFN-γ production boosted by rhIL-12 and rhIL-18, average over three days [1]	Mean concentration (pg/mL) of IFN-γ in culture medium, Tumor + CAR-T, day 1 [2]	Mean cumulative concentration (pg/mL) of IFN-γ in culture medium, Tumor + CAR-T, day 2 [2]	Mean cumulative concentration (pg/mL) of IFN-γ in culture medium, Tumor + CAR-T, day 3 [2]
recombinant human IL-18BP (rhIL-18BP, Tadekinig alfa)	82%	79%	75%	100%	92%	79%	80%	–	–	–
CD19-specific CAR of CD19SCFV-CD28-4-1BB-CD3 CAR-T-cells (#PM-CAR1003-10M, ProMAB)	–	–	–	–	–	–	–	6910 pg/mL	21500 pg/mL	32700 pg/mL
